Laboratory results from the DeepSol protein solubility set.

Test: soluble on expression in E. coli; label from the status in PepcDB or PDB records

| Sequence | soluble on expression in E. coli |
| --- | --- |
| MSLTDEQFNPQDEEIEIEAIGVEVSCQPIELYKVLKIANAVSGGGEAKHVISEGYVFVNGDVETRKRCKVFDGDLIEFNQEFYLVICDAPVTEPESFDTQPELASSHKPTKTQKKSSANTSAKSKPSKNNKTVSGQKKAKNDKKSPQSDSKSPSGRSAIRFFEGGSHHHHHH | soluble |
| MSLTDLKEVARLAGVSRATAARAFASPEVVRAETRERVFVAARELGFRPNRLGRQLRLQTTNLIGVIVPNLLNPVFAEQFQAMERAARARGYNLLLATTDYSAERESAVVEELLRQRVDGLVLTVTDAEHNRVLESLAIEDTPFVLAYHQTDNEEYSAVSVDNRAGMALATRYLIDAGHRCIAMVAGPVMQSDRARLRYEGYRDAMNEGGLEARPVIEMPAHTNADFAALKPLLRGPTAPSALVCSNDLLAISLIAELRRNGWGVPERLSVIGFDGIALGTQMHPTLCSVVQPIAELAHIVIDQLLARIAGAVPVSHCLPCHIRPGESTQPYKEMLHAQPEGHHHHHH | soluble |
| MSLTEPEDPSRERLKHHFAQRVIHQARQILEIWQRLQRSEWSTTDMSELCEANLRLLRFAERFEQPEHTQLARSISQSLEAVDANRGRLSSNLITDLNRLMQRLSRTGLRHGDQLEQTFLPPLRKPIYVMLQDHDRAERLAKQLEFFGLSAQSLDSIPAFRSSMVERLPAAIVIDVDFCGAGMGLTLAAEAQVGLEQKLPLLFFSLHETDTPTRLAAVRAGGQEFLTGTLEASSLLEKIEVLTCVAQYEPYKVLIIDDSRAQALHTERLLNSAGIVTRTLIEPIQAMAELADFQPDLIILDMYMPACTGTELAKVIRHNDRYVSVPIIYLSAEDDLDKQLDAMSEGGDDFLTKPIKPRHLITTVRNRAARARNLKARMVRDSLTGEGHHHHHH | not soluble |
| MSLTEPRQAHRLHILKVALDVPLDGVFDYLSEAPVQIGQRVVVPFGPRRQVGIVVDLADASDVAPAKLKSIIQYFDQEPVLDGEFFSLLKFCADYYQYPYGQALLSALPARLRQTEPARARQQFCYWLNSAGQAADISAIPVRQAVQRRIFAALRAHGRLNEAELAELSPGWRKGLAALRERGWIEEEQVYAGLGSTLHASSVQPELNEEQVLAVQSILQYRDTFRPWLLHGITGSGKTEVYIRLLQAVLEGNQDQALVLVPEINLTPQLEARFRTRLPQFPLVTLHSNLSESERLQNWRLAQTGAARIVIGTRLSVFTPLPGLKFMIVDEEHDTSYKQQDGMRYHARDVALVRAQRRNIPIVLGSATPALETWHNARNGRYGLLTLQQRAVSQSQLPQVNCVDVSRVQMQEGLSPQLLKALKVRLERGEQSLLFINRRGYAPVLLCNACHWIAPCMRCSSRLVVHLRQGFLRCHHCGHEQNIVRQCPSCGNADLHPTGNGTQRLEETLTRLLPEARVLRVDRDSTRRKHALSEMLSAVHVGEVDILVGTQMLAKGHDFPNLTLVGVLDTDSALFSPDFRAAERLFAQLMQVAGRAGRADKPGEVLIQTSFPEHQLFNALRVQDFAAYAASLLQEREVAQFPPCEFLALIKAEANEYGPVQRFLQFAADSARALGTDALVYDPVRPQMERLKGMERGQLLFQAATRQTLQIVLRQLTPQLRAHPLSNKIRWAVDVDPQEEGHHHHHH | not soluble |
| MSLTFYWYPKCGTCRKAKKWLEEHGKEINEIHIAEQPPSKEELKALYEKSGLDLKKFFNTSGMKYRELNLKEKLYHMSEDEQLELLASDGMLIKRPLTTDGEKVTVGFKEDQFEENWA | not soluble |
| MSLTHSCRLSVAPMLDWTDRHCRYFHRLLSAQTLLYTEMVTTGAIIHGRGDFLAYNQEEHPVALQFGGSNPKDLAHCAKLAQERGYDEINLNVGCPSDRVQNGRFGACLMGEPDLVAECVAAMRAVVDIPVTVKTRIGIDDQDSYEFLTQFIATVAEKGGCEQFTIHARKAWLSGLSPKENREIPPLDYPRAYQIKRDFPHLTIAVNGGVKSLEEAKLHLQHLDGVMIGREAYQNPYLLAEVDQQIFGLETPVKKRSQVIHEMMPYIERELSQGTHLGHMTRHMLGLFQNMPGARQWRRHISENAHKPGAGLEVVEQALAKIPYQELGEGHHHHHH | soluble |
| MSLTIFTKERKLLLAVESSCDETSVAVIEDGDKILSNIVASQIKSHQRFGGVVPEVASRHHVEQVTICIEEALTEAKVTPEELSGVAVTYGPGLVGALLIGLSAAKAFAWAHQLPLIPVNHMAGHIYAARFVAPLEFPLMALLVSGGHTELVYMKEDGSFEIVGETRDDAAGEAYDKVGRVLGLPYPSGKEIDALAHEGTDTYQFPRAMLKEDNYDFSFSGLKSAFINTVHNAEQRGEALSTKDLAASFQASVVEVLVTKTIRACQEYPVKQLLIAGGVAANQGLREAMRHAISEQLPAVTLLIPPLKLCGDNAAMIGAAAFIEAEKNHFASYNLNAEPGVSFMTISEEGEGHHHHHH | soluble |
| MSLTKDPEWLTKEFAGNPIRTGRTIEDPDFPRIAITYSIQENEDNSKQIQDEMKDIIKDYNDYYHTAWSIEDIERYNGDINNRLARKKAEFKEFGKQIDLVIVVDRLLTGFDAPTIQTLFVDRNLSYANLIQAFSRTNRTYPGKTKGLIVTFRKPSTMEQNVKDATKLYSEAQEESDLVYPTYDESKKRFKKAHKLLTTLVPNPTDINEHSPLEIRIEFVKAFQELNNTYEALVTYDEYNDDMEKSKVLQEQINTLEEYIGVYNTVKGSLVDEGAQDGPGPDFSGIEFYGENAIKVYDIDSTYIDRLLGTYSANNQNIRDEIEKALQKLKKLEIVKDVYRAMLNAIDTKKIDSEEDILVVKRRFFTESYDKAIKEFANTWFVEGNELHLSAIQYVIGSDPIPNIRGIINSKQFDKYKAIHPDAKPLKYGPEMKRQWRKTLDEVIVPLADELREGHHHHHH | soluble |
| MSLTKIAKVIVDVPLMQTDKPFSYKIPEALLSVITAGSRVHVPFGKGNRLLQGFVVSVDSGSAQHLKTIIDVLDVEPVLNQEQLELADQMRKTVFSYKISILKSMIPNLLNSNYDRLLKPKKGLSQEEKDLIFAGKKQINFSQLNQEIQTKSLSLIQAGKIDIEYLAKDRKTIKTQKCYDVNLEKLSHLLINKRAKKRQELKDYLANHPQSGPLSDLYRLFSREVVHYFIKEAVLNISQVEVNRTQSYFENIIQSDFLDLNPEQQTAVEQITAAIGSSNKPYLLEGITGSGKTEVYLHVIDQTLKLGKTAIVLVPEISLTPQMTSRFISRFGSQVAIMHSGLSDGEKFDEWRKMKSNQAKVVVGARSAIFSPLKNIGAIIIDEEHEATYKQESSPRYHAREVALLRAQYHQAVLVLGSATPSIESRARASRGVYNFLQLSQRANPQAHIPKVKIVDFRDYIGQQKVSNLTPVLLDKIKDRLIKKEQVVLMLNRRGYSSFIMCRDCGYVDNCPNCDISLTLHMDTKTMNCHYCGFLKGIPYNCPNCQSRQIRYYGTGTQKAYDELKQVLPEARILRMDVDTTKRKGAHEKILTKFGRHEADILLGTQMIAKGLDFPNVTLVGVLNADTSLNLPDFRSSERTFQLLTQVAGRAGRANKPGEVLIQTYNPNHYAIQLAREQDYEAFYRYEMRIRKALSYPPYYFTVGLTLSHKDEQEVIKKSYEIVTLIKEGLTDKIKILGPTPKPVARTHNLYHYQIIIKYRFEDQLEIVLNHILDLTQAKENKKLRLIIDHEPQSEGHHHHHH | soluble |
| MSLTKKDVIKLLEQIATYMELKGENTFKISAYRKAAQSLELDERPLDEISDVTELKGIGKGVAEVINDYRETGESQYLQQLQEEVPEGLIPLLKIQGLGSKKIAKLYKELNIVDKASLQVACENGKVSELSGFAKKTEQNILEAVKQLGAKKDRYPIDQMRRLNQEIIDYIDTLNYIDQYSSAGSFRRFKEMSKDLDFIISTDNPKAVQQQLLNIPNKVKEVAVGNTKVSLELAYDDETIGVDFRLIEPRAFYHTLQHFTGSKEHNIRIRQLAKARDEKVSEYGIEQADGTLIQYDSEAKIYEHFNVNFIPPAMREDGSEFDKDLSNIITLDDINGDIHMHTTYSDGAFSIRDMVEANIAKGYKFMVITDHSQSLRVANGLQVERLLRQNEEIKALDKEYSEIDIYSGTEMDILPDGSLDYDDEILAQLDYVIGAIHQSFNQSEEQIMERLANACRNPYVRHIAHPTGRIIGRRDGYKPNIEQLMALAEETNTVLEINANPHRLDLNAEIVRKYPNVKLTINTDAHHTNHLDFMNYGVATAQKGFVTKDRVINALSREAFKDFIENNIKLKKEGHHHHHH | soluble |
| MSLTLAFAYVRASTIEEVRQGSNERQKEAIRQYTYQKGYELEIFEDKAKSGRNTLRPEFERMLKSLDRRPQIVIVSKIDRFARSLSDLLKTLEYLDQNGVGFVSVNDPGIDTTTPNGRLLLQILGAFAEFERNMINSRTKAGREQAQSKGVKFGRPPLKTRNGSFIDRRKVMELKQKGLSARAIAKSLECSTTPILRILRENEGHHHHHH | soluble |
